Test results from patent publication EP4737482A1 (Atheon Bio, Inc., dated 2026).

T1: human MYCT1 (hMYCT1) (human, UniProt Q8N699 1-235, limits assumed)
T1 construct: also called MYC Target 1
T1 sequence: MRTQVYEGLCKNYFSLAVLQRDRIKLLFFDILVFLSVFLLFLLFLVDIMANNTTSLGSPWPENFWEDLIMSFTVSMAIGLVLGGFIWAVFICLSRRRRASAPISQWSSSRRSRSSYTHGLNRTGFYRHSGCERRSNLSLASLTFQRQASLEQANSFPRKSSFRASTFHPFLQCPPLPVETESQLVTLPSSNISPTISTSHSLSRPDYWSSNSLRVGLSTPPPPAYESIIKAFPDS


Tests used:
human MYCT1 (hMYCT1) [1] = molecular target: T1, human MYCT1 (hMYCT1); assay: SPR koff ranking, single curve, antibody captured via anti-human Fc IgG, 10 nM MYCT1 as analyte, 1:1 binding model
human MYCT1 (hMYCT1) [2] = molecular target: T1, human MYCT1 (hMYCT1); assay: SPR (Biacore 8K), antibody captured via anti-human Fc IgG, MYCT1 as analyte, steady-state affinity model

Binder | koff (human MYCT1 (hMYCT1) [1]) | Kd (human MYCT1 (hMYCT1) [2])
11B6-z0-uIgG1K (antibody, V domains shown) VH: EVQLVESGGGLVKPGGSLRLSCAASGFTFSDFGIHWVRQAPGKGLEWVSYISSGSRTIHYADTVKGRFTISRDNAKNSLYLQMNSLRAEDTAVYYCARRDWDPEWLAYWGQGTLVTVSS VL: DIVMTQSPLSLPVTPGEPASISCRSSLSLVHSNGHTYLHWYLQKPGQSPQLLIYKVSNRFSGVPDRFSGSGSGTDFTLKISRVEAEDVGVYYCSQSTHVPFTFGQGTKLEIK | 0.0624 s⁻¹ | 
2B4-z14-uIgG1K (antibody, V domains shown) VH: EVQLQQSGPELVKPGASVKMSCKASGYTFTDYNMHWVRQSHGKGLEWIGYINPNNGGSSYNRKFKGKATLTVNKSSRSASMELRSLTSEDSAVYYCATRFDVWGTGTTVTVSS VL: DVVMTQSPLSLPVTLGQPASISCKSSQSLLFSDGKTYLNWLQQRPGQSPRRLIYLVSKLDSGVPDRFSGSGSGTDFTLKISRVEAEDVGVYYCWQGTHFPQTFGGGTKVEIK |  | 203 nM
2B4-z2-uIgG1K (antibody, V domains shown) VH: QVQLVQSGAEVKKPGASVKVSCKASGYTFTDYNMHWVRQAPGQGLEWMGYINPNNGGSSYNRKFKGRVTMTTDTSTSTAYMELRSLRSDDTAVYYCATRFDVWGQGTTVTVSS VL: DVVMTQSPLSLPVTLGQPASISCKSSQSLLFSDGKTYLNWLQQRPGQSPRRLIYLVSKLDSGVPDRFSGSGSGTDFTLKISRVEAEDVGVYYCWQGTHFPQTFGGGTKVEIK |  | 368 nM
11B6-p1-uIgG1K (antibody, V domains shown) VH: EVQLVESGGGLVKPGGSLKLSCAASGFTFSDFGIHWVRQAPEKGLEWVGYISSGSRTIHYADTVKGRFTISRDNAKNTLFLQMTNLRSEDTAIYYCARRDWDPEWLAYWGQGTLVTISA VL: DVVMTQAPLSLPVSLGDQASISCRSSLSLVHSQGHTYLHWYLQKPGQSPKLLIYKVSNRFSGVPDRFSGSGSGTDFTLKIRRVEAEDLGVYFCSQSTHVPFTFGSGTKLEIK | 0.00933 s⁻¹ | 
11B6-z1-uIgG1K (antibody, V domains shown) VH: EVQLVESGGGLVKPGGSLRLSCAASGFTFSDFGIHWVRQAPGKGLEWVGYISSGSRTIHYADTVKGRFTISRDNAKNSLYLQMNSLRAEDTAVYYCARRDWDPEWLAYWGQGTLVTVSS VL: DIVMTQSPLSLPVTPGEPASISCRSSLSLVHSNGHTYLHWYLQKPGQSPQLLIYKVSNRFSGVPDRFSGSGSGTDFTLKISRVEAEDVGVYYCSQSTHVPFTFGQGTKLEIK | 0.0169 s⁻¹ | 
11B6-z3-uIgG1K (antibody, V domains shown) VH: EVQLVESGGGLVKPGGSLRLSCAASGFTFSDFGIHWVRQAPGKGLEWVSYISSGSRTIHYADTVKGRFTISRDNAKNSLFLQMNSLRAEDTAVYYCARRDWDPEWLAYWGQGTLVTVSS VL: DIVMTQSPLSLPVTPGEPASISCRSSLSLVHSNGHTYLHWYLQKPGQSPQLLIYKVSNRFSGVPDRFSGSGSGTDFTLKISRVEAEDVGVYYCSQSTHVPFTFGQGTKLEIK | 0.0659 s⁻¹ | 
11B6-z2-uIgG1K (antibody, V domains shown) VH: EVQLVESGGGLVKPGGSLRLSCAASGFTFSDFGIHWVRQAPGKGLEWVSYISSGSRTIHYADTVKGRFTISRDNAKNTLYLQMNSLRAEDTAVYYCARRDWDPEWLAYWGQGTLVTVSS VL: DIVMTQSPLSLPVTPGEPASISCRSSLSLVHSNGHTYLHWYLQKPGQSPQLLIYKVSNRFSGVPDRFSGSGSGTDFTLKISRVEAEDVGVYYCSQSTHVPFTFGQGTKLEIK | 0.056 s⁻¹ | 
11B6-p3-uIgG1K (antibody, V domains shown) VH: EVQLVESGGGLVKPGGSLKLSCAASGFTFSDFGIHWVRQAPEKGLEWVGYISSGSRTIHYADTVKGRFTISRDNAKNTLFLQMTNLRSEDTAIYYCARRDWDPEWLAYWGQGTLVTISA VL: DVVMTQAPLSLPVSLGDQASISCRSSLSLVHSNAHTYLHWYLQKPGQSPKLLIYKVSNRFSGVPDRFSGSGSGTDFTLKIRRVEAEDLGVYFCSQSTHVPFTFGSGTKLEIK | 0.00547 s⁻¹ | 
11B6-p2-uIgG1K (antibody, V domains shown) VH: EVQLVESGGGLVKPGGSLKLSCAASGFTFSDFGIHWVRQAPEKGLEWVGYISSGSRTIHYADTVKGRFTISRDNAKNTLFLQMTNLRSEDTAIYYCARRDWDPEWLAYWGQGTLVTISA VL: DVVMTQAPLSLPVSLGDQASISCRSSLSLVHSSGHTYLHWYLQKPGQSPKLLIYKVSNRFSGVPDRFSGSGSGTDFTLKIRRVEAEDLGVYFCSQSTHVPFTFGSGTKLEIK | 0.00691 s⁻¹ | 

Second part, the binder after the results:

koff (human MYCT1 (hMYCT1) [1]) | Kd (human MYCT1 (hMYCT1) [2]) | Binder
0.0473 s⁻¹ |  | 11B6-z7-uIgG1K (antibody, V domains shown) VH: EVQLVESGGGLVKPGGSLRLSCAASGFTFSDFGIHWVRQAPGKGLEWVSYISSGSRTIHYADTVKGRFTISRDNAKNSLYLQMNSLRAEDTAVYYCARRDWDPEWLAYWGQGTLVTVSS VL: DIVMTQSPLSLPVTPGEPASISCRSSLSLVHSNGHTYLHWYLQKPGQSPQLLIYKVSNRFSGVPDRFSGSGSGTDFTLKIRRVEAEDVGVYYCSQSTHVPFTFGQGTKLEIK
0.0377 s⁻¹ |  | 11B6-z6-uIgG1K (antibody, V domains shown) VH: EVQLVESGGGLVKPGGSLRLSCAASGFTFSDFGIHWVRQAPGKGLEWVSYISSGSRTIHYADTVKGRFTISRDNAKNSLYLQMNSLRAEDTAVYYCARRDWDPEWLAYWGQGTLVTVSS VL: DIVMTQSPLSLPVTPGEPASISCRSSLSLVHSNGHTYLHWYLQKPGQSPKLLIYKVSNRFSGVPDRFSGSGSGTDFTLKISRVEAEDVGVYYCSQSTHVPFTFGQGTKLEIK
0.0521 s⁻¹ |  | 11B6-z5-uIgG1K (antibody, V domains shown) VH: EVQLVESGGGLVKPGGSLRLSCAASGFTFSDFGIHWVRQAPGKGLEWVSYISSGSRTIHYADTVKGRFTISRDNAKNSLYLQMNSLRAEDTAVYYCARRDWDPEWLAYWGQGTLVTVSS VL: DVVMTQSPLSLPVTPGEPASISCRSSLSLVHSNGHTYLHWYLQKPGQSPQLLIYKVSNRFSGVPDRFSGSGSGTDFTLKISRVEAEDVGVYYCSQSTHVPFTFGQGTKLEIK
0.0324 s⁻¹ |  | 11B6-z8-uIgG1K (antibody, V domains shown) VH: EVQLVESGGGLVKPGGSLRLSCAASGFTFSDFGIHWVRQAPGKGLEWVSYISSGSRTIHYADTVKGRFTISRDNAKNSLYLQMNSLRAEDTAVYYCARRDWDPEWLAYWGQGTLVTVSS VL: DIVMTQSPLSLPVTPGEPASISCRSSLSLVHSNGHTYLHWYLQKPGQSPQLLIYKVSNRFSGVPDRFSGSGSGTDFTLKISRVEAEDVGVYFCSQSTHVPFTFGQGTKLEIK
0.0476 s⁻¹ |  | 11B6-z4-uIgG1K (antibody, V domains shown) VH: EVQLVESGGGLVKPGGSLRLSCAASGFTFSDFGIHWVRQAPGKGLEWVSYISSGSRTIHYADTVKGRFTISRDNAKNSLYLQMNSLRAEDTAIYYCARRDWDPEWLAYWGQGTLVTVSS VL: DIVMTQSPLSLPVTPGEPASISCRSSLSLVHSNGHTYLHWYLQKPGQSPQLLIYKVSNRFSGVPDRFSGSGSGTDFTLKISRVEAEDVGVYYCSQSTHVPFTFGQGTKLEIK
0.0102 s⁻¹ |  | 11B6-z11-uIgG1K (antibody, V domains shown) VH: EVQLVESGGGLVKPGGSLRLSCAASGFTFSDFGIHWVRQAPGKGLEWVGYISSGSRTIHYADTVKGRFTISRDNAKNSLYLQMNSLRAEDTAIYYCARRDWDPEWLAYWGQGTLVTVSS VL: DVVMTQSPLSLPVTPGEPASISCRSSLSLVHSNGHTYLHWYLQKPGQSPQLLIYKVSNRFSGVPDRFSGSGSGTDFTLKISRVEAEDVGVYFCSQSTHVPFTFGQGTKLEIK
0.0311 s⁻¹ |  | 11B6-z9-uIgG1K (antibody, V domains shown) VH: EVQLVESGGGLVKPGGSLRLSCAASGFTFSDFGIHWVRQAPGKGLEWVSYISSGSRTIHYADTVKGRFTISRDNAKNSLYLQMNSLRAEDTAVYYCARRDWDPEWLAYWGQGTLVTVSS VL: DVVMTQSPLSLPVTPGEPASISCRSSLSLVHSNGHTYLHWYLQKPGQSPQLLIYKVSNRFSGVPDRFSGSGSGTDFTLKISRVEAEDVGVYFCSQSTHVPFTFGQGTKLEIK
0.00838 s⁻¹ |  | 11B6-z12-uIgG1K (antibody, V domains shown) VH: EVQLVESGGGLVKPGGSLRLSCAASGFTFSDFGIHWVRQAPGKGLEWVGYISSGSRTIHYADTVKGRFTISRDNAKNSLYLQMNSLRAEDTAIYYCARRDWDPEWLAYWGQGTLVTVSS VL: DVVMTQSPLSLPVTPGEPASISCRSSLSLVHSNGHTYLHWYLQKPGQSPKLLIYKVSNRFSGVPDRFSGSGSGTDFTLKIRRVEAEDVGVYFCSQSTHVPFTFGQGTKLEIK
0.0102 s⁻¹ |  | 11B6-z10-uIgG1K (antibody, V domains shown) VH: EVQLVESGGGLVKPGGSLRLSCAASGFTFSDFGIHWVRQAPGKGLEWVGYISSGSRTIHYADTVKGRFTISRDNAKNSLYLQMNSLRAEDTAVYYCARRDWDPEWLAYWGQGTLVTVSS VL: DVVMTQSPLSLPVTPGEPASISCRSSLSLVHSNGHTYLHWYLQKPGQSPQLLIYKVSNRFSGVPDRFSGSGSGTDFTLKISRVEAEDVGVYFCSQSTHVPFTFGQGTKLEIK
0.00838 s⁻¹ |  | 11B6-z13-uIgG1K (antibody, V domains shown) VH: EVQLVESGGGLVKPGGSLRLSCAASGFTFSDFGIHWVRQAPGKGLEWVGYISSGSRTIHYADTVKGRFTISRDNAKNTLFLQMNSLRAEDTAIYYCARRDWDPEWLAYWGQGTLVTVSS VL: DVVMTQSPLSLPVTPGEPASISCRSSLSLVHSNGHTYLHWYLQKPGQSPKLLIYKVSNRFSGVPDRFSGSGSGTDFTLKIRRVEAEDVGVYFCSQSTHVPFTFGQGTKLEIK
0.0052 s⁻¹ |  | 11B6-z14-uIgG1K (antibody, V domains shown) VH: EVQLVESGGGLVKPGGSLKLSCAASGFTFSDFGIHWVRQAPEKGLEWVGYISSGSRTIHYADTVKGRFTISRDNAKNTLFLQMTNLRSEDTAIYYCARRDWDPEWLAYWGQGTLVTISA VL: DVVMTQSPLSLPVTPGEPASISCRSSLSLVHSNGHTYLHWYLQKPGQSPKLLIYKVSNRFSGVPDRFSGSGSGTDFTLKIRRVEAEDVGVYFCSQSTHVPFTFGQGTKLEIK
0.00906 s⁻¹ |  | 11B6-z15-uIgG1K (antibody, V domains shown) VH: EVQLVESGGGLVKPGGSLRLSCAASGFTFSDFGIHWVRQAPGKGLEWVGYISSGSRTIHYADTVKGRFTISRDNAKNTLFLQMNSLRAEDTAIYYCARRDWDPEWLAYWGQGTLVTVSS VL: DVVMTQAPLSLPVSLGDQASISCRSSLSLVHSNGHTYLHWYLQKPGQSPKLLIYKVSNRFSGVPDRFSGSGSGTDFTLKIRRVEAEDLGVYFCSQSTHVPFTFGSGTKLEIK
